Experimental data reported in patent US20230065153A1 (HIROSHIMA UNIVERSITY, published 2023).

Assays:
human integrin α10 = molecular target: T1, human integrin α10 (human, UniProt O75578 23-1167); test: FACS on human integrin α10 introduced CHO cells
T1 construct: whole, on cells
T1 sequence (looked up): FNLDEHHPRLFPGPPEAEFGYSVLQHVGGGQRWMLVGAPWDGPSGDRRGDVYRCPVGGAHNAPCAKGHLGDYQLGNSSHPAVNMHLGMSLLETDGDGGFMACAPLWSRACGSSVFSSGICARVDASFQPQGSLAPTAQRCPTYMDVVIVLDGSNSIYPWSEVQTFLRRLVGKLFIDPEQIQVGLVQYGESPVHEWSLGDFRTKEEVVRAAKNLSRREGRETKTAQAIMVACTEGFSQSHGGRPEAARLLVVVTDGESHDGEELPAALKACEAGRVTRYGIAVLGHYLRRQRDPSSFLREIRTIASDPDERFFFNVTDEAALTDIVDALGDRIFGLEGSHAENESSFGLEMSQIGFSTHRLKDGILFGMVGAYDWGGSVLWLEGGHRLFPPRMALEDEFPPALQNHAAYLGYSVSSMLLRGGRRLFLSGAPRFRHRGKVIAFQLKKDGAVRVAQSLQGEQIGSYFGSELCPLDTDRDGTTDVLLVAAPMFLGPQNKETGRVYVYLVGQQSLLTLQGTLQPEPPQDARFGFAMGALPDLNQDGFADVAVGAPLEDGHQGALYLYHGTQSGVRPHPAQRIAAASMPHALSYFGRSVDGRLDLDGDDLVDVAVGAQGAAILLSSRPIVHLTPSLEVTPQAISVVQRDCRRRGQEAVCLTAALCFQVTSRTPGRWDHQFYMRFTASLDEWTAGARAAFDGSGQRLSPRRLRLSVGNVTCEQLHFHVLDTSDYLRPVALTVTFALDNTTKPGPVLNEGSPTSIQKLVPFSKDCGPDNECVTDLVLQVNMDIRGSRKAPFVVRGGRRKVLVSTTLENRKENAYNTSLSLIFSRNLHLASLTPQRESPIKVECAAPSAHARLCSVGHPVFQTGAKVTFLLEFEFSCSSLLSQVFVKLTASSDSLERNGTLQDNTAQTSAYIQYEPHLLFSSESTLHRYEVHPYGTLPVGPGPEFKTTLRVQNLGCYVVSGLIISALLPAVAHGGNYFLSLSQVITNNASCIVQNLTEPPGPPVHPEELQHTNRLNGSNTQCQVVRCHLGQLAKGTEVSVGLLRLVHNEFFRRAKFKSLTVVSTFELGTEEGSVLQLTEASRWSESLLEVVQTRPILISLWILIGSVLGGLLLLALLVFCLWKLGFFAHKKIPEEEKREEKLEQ
Experimental: (§1) Reactivity (specificity) with respect to α11 in the antibody which has been converted into IgG was analyzed based on presence or absence of reactivity with respect to other collagen binding integrins α1, α2, and α10. First, reactivity of the antibody with respect to the CHO cell and the human integrin α11 introduced CHO cell was analyzed by FACS. Subsequently, reactivity of the antibody with respect to a human colorectal carcinoma cell line (SW480 cell: cell line expressing endogenous α1 and α2) and a human integrin α10 introduced CHO cell was analyzed by FACS. The reaction conditions of FACS using the IgG antibody are as follows. That is, the antibody as a primary antibody was added to a cell at a concentration of 5 μg/ml to react with the cell on ice for 25 minutes. After washing, PE labeled anti-mouse IgG antibody as a secondary antibody was added to the cell at a concentration of 2 μg/ml to react with the cell on ice for 15 minutes. The subsequent FACS processes were carried out under the same conditions.

[1] = molecular target: T2, integrin α1 (endogenous on human colorectal carcinoma SW480 cells) (human, UniProt P56199 29-1179); test: FACS on SW480 cells expressing endogenous α1 and α2
T2 construct: whole, on cells
T2 sequence (looked up): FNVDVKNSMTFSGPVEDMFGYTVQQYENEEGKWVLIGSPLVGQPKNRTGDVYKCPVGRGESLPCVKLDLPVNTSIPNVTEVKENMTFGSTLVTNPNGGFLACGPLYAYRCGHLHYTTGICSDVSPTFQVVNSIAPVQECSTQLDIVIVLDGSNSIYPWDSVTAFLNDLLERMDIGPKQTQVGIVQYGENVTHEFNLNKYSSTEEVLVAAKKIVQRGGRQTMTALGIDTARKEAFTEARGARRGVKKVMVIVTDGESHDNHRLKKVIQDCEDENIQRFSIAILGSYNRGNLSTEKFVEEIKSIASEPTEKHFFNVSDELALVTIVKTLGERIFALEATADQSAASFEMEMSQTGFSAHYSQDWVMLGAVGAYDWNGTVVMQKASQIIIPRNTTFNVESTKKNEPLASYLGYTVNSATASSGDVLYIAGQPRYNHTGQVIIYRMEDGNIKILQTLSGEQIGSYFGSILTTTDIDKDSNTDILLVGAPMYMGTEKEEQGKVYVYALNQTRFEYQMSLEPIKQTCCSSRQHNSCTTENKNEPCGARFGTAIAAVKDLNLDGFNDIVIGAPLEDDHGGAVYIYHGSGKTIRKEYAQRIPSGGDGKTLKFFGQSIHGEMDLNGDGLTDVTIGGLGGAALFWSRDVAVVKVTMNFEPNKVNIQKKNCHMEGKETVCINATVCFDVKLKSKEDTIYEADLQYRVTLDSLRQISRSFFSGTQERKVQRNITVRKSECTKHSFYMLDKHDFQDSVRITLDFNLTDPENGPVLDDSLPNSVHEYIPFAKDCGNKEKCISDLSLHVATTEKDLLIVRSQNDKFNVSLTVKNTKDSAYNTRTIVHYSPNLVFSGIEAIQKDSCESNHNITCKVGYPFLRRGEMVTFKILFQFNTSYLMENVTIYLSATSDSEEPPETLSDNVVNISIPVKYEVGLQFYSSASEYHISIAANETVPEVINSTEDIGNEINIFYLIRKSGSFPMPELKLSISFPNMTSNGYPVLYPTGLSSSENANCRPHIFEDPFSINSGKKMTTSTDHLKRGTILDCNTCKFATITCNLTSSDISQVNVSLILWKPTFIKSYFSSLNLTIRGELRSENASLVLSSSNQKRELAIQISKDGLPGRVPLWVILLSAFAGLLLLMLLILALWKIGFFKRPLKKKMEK
Experimental: as §1

[2] = molecular target: T3, integrin α2 (endogenous on human colorectal carcinoma SW480 cells) (human, UniProt P17301 30-1181); test: as above
T3 construct: whole, on cells
T3 sequence (looked up): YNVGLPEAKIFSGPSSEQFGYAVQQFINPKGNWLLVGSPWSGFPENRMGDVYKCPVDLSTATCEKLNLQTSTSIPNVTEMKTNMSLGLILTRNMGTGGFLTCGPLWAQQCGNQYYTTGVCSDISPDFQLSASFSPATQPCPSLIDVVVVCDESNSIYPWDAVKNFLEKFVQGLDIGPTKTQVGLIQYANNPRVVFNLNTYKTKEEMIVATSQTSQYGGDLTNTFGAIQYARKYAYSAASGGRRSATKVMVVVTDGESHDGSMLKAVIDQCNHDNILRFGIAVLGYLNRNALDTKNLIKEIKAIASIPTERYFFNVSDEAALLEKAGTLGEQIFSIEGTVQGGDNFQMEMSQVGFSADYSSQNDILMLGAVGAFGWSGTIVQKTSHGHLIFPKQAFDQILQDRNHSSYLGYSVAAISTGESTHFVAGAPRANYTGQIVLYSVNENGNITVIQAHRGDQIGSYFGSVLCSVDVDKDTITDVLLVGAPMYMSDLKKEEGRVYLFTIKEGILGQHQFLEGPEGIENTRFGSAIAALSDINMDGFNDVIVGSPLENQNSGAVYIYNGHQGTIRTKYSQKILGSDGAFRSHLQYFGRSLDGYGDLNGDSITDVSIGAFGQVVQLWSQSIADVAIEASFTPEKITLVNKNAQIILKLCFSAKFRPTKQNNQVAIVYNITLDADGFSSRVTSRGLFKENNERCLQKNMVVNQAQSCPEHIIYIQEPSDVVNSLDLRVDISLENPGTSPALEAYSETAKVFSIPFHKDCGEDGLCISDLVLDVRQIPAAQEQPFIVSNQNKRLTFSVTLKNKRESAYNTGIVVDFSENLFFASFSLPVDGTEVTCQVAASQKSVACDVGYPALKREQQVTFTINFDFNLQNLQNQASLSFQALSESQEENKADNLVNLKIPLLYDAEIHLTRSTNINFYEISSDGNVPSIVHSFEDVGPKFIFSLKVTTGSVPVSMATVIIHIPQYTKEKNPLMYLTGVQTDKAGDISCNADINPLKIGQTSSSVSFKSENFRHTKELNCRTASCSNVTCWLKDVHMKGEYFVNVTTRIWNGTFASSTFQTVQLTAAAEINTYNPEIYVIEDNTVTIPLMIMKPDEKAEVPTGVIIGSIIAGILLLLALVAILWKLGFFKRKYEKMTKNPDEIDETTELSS
Experimental: as §1

binding result (human integrin α10): no binding (tested: 5 µg/ml) | binding result [1]: no binding (tested: 5 µg/ml) | binding result [2]: no binding (tested: 5 µg/ml)
B1: wild-type #33 IgG (anti-integrin α11 monoclonal antibody, chicken-mouse chimeric IgG1) (antibody, V domains shown)
VH: AVTLDESGGGLQTPGGALSLVCKGSGFTFSSYGMQWVRQAPGRGLEWVAGIDDDGSFTLYGAAVDGRATISRDNGQTTVRLQLSDLRAEDTATYFCAKGGYGYCWYGDAACIDAWGHGTEVIVSS
VL: AVTQPSSVSANPGETVKITCSGGSDSWYGWYQQKSPGSAPVTVIYSNNQRPSNIPSRFSGSTSGSTSTLTITGVQADDEAVYFCGSRDSSYDGIFGAGTTLTVLK
notes: Chicken VH linked to a mouse IgG1 constant region and chicken VL linked to a mouse Igκ region; His-tagged at the C-terminal; also called the antibody
